Experimental findings from article PMC3713010, “Sox2 Transcriptionally Regulates Pqbp1, an Intellectual Disability-Microcephaly Causative Gene, in Neural Stem Progenitor Cells” are described below.

What all share (assay): EMSA; 10% glycerol, 20 mM HEPES pH 7.8, 45 mM KCl, 10 mM NaCl, 1 mM EDTA, 1 mM DTT, 0.2 ug/uL BSA, 0.1% NP-40, 50 ng poly-dIdC; 20 ng each GST protein; room temperature 30 min (heterodimers 4 C); 6% PAGE 0.25x TBE
Common to all, as to conditions: protein: recombinant; tags: GST (N-terminal, pGEX-6P-1); label: 32P-dCTP fill-in of the 5' (dG)5 overhangs of both strands (Methods; control probes are given with GGG)

Series [1] concerns the target T1, Brn2 DNA-binding domain (BD-Brn2) (Mus musculus (B6), UniProt P31360 336-435).
T1 sequence: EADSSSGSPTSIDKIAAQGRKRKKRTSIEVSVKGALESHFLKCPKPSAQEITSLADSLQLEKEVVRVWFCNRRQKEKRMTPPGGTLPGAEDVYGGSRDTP
The method in brief: (§1)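 GST-tagged transcription factor DNA-binding domains were made in E. coli BL21 and purified on glutathione-sepharose. They were tested against candidate cis-element oligonucleotides, annealed and labelled with 32P-dCTP. Each protein (20 ng) was mixed with 40,000–50,000 cpm probe and 50 ng poly-dIdC in HEPES/KCl glycerol buffer with BSA and detergent for 30 min at room temperature. Samples were resolved on 6% polyacrylamide in 0.25×TBE at 4°C. DNA binding was scored as band radioactivity in the expected shift region, measured on a BAS4000 imager.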

For series [2], the target named is Pax6 DNA-binding domain (BD-Pax6) (Mus musculus (B6), UniProt P63015 190-289). The method in brief:
as §1

Series [3] deals with T2, Oct6 DNA-binding domain (BD-Oct6) (Mus musculus (B6), UniProt P21952 317-416).
T2 sequence: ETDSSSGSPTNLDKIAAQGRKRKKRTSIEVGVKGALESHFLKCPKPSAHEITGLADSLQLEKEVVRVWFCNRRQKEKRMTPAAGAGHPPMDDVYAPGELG
The gist of the method:
as §1

Pax6 DNA-binding domain (BD-Pax6), sequence (P63015 190-289): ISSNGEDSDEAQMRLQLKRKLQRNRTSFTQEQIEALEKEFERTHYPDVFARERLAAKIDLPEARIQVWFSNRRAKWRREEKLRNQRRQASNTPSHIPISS

B1: 60 (dsDNA)
DNA 1: GGGGGAATTTAATTTTGTCTCTACCTTTCACGCTTCTCCTTTGCATTTTCCCCCC
DNA 2: GGGGGGAAAATGCAAAGGAGAAGCGTGAAAGGTAGAGACAAAATTAAATTCCCCC
Consider B1, for which the binding result in series [1], in series [2] and in series [3] was “binds” each time.

B2: 69 (dsDNA)
DNA 1: GGGGGACAAGTGATTTGTCCTTATCACATAGCTAGGAAAAGGGAATCCCCC
DNA 2: GGGGGATTCCCTTTTCCTAGCTATGTGATAAGGACAAATCACTTGTCCCCC
For B2, the binding result in series [1] is on record as “no binding”; in series [2] it was “no binding”; in series [3], “binds”.

B3: 68 (dsDNA)
DNA 1: GGGGGTTTGTTTGTTTGTTTAAAGGATTTATTTATTTATCCCCC
DNA 2: GGGGGATAAATAAATAAATCCTTTAAACAAACAAACAAACCCCC
For B3, the binding result in series [1], in series [2] and in series [3] was “binds” each time.

B4: 58 (dsDNA)
DNA 1: GGGGGTGAGATGGAGGAAATAAGTCTTATTGTTGTTCTCCCCCCC
DNA 2: GGGGGGGAGAACAACAATAAGACTTATTTCCTCCATCTCACCCCC
For the molecule B4, the binding result is recorded as “no binding” in series [1], “no binding” in series [2] and “binds” in series [3].

B5: 63 (dsDNA)
DNA 1: GGGGGAGAAATCCTCAATTTCCTTATCCACAAAATGGACATTTTCCTAGTACCTCCCCC
DNA 2: GGGGGAGGTACTAGGAAAATGTCCATTTTGTGGATAAGGAAATTGAGGATTTCTCCCCC
For the molecule B5, the binding result is recorded as “no binding” in series [1], “binds” in series [2] and “binds” in series [3].

B6: 59 (dsDNA)
DNA 1: GGGGGAGCTTTTAACAATTTAATTTTGTCTCTACCTCCCCC
DNA 2: GGGGGAGGTAGAGACAAAATTAAATTGTTAAAAGCTCCCCC
Take B6: the binding result in series [1], in series [2] and in series [3] was “binds” throughout.

B7: 61 (dsDNA)
DNA 1: GGGGGTAAATTTTTCTAATCCTGACAAATCTCTTCACCCCC
DNA 2: GGGGGTGAAGAGATTTGTCAGGATTAGAAAAATTTACCCCC
Consider B7, for which the binding result in series [1] was “no binding”; in series [2], “binds”; in series [3], “binds”.

B8: 64 (dsDNA)
DNA 1: GGGGGATATATGCACAAACACTCATTTACATAAAATAACCCCC
DNA 2: GGGGGTTATTTTATGTAAATGAGTGTTTGTGCATATATCCCCC
Turning to B8, the binding result in series [1], in series [2] and in series [3] was “binds” each time.

B9: 55 (dsDNA)
DNA 1: GGGGGGTAGATTATTTGTCCACCATTCACAAGCACTGAGTTCAATAACCCCCC
DNA 2: GGGGGGTTATTGAACTCAGTGCTTGTGAATGGTGGACAAATAATCTACCCCCC
Turning to B9, the figures for the binding result in series [1], in series [2] and in series [3] were “no binding”, “no binding” and “binds”, respectively.

B10: 67 (dsDNA)
DNA 1: GGGGGGCATATGCATTGTCTGTGTATTCTAAATGTATCCCCC
DNA 2: GGGGGATACATTTAGAATACACAGACAATGCATATGCCCCCC
As to B10, the binding result in series [1], in series [2] and in series [3] was “no binding” in each case.

B11: 72 (dsDNA)
DNA 1: GGGGGGTTTGTTTTTTAAGGAACTGTAATGAACAAATGTCAGGACCCCC
DNA 2: GGGGGTCCTGACATTTGTTCATTACAGTTCCTTAAAAAACAAACCCCCC
Take B11: the binding result in series [1], in series [2] and in series [3] was “binds” in each case.

B12: 73 (dsDNA)
DNA 1: GGGGGCTTGTCCTCAGCATCTATGGTAACACACAAATCCTGAAGCCCCC
DNA 2: GGGGGCTTCAGGATTTGTGTGTTACCATAGATGCTGAGGACAAGCCCCC
With B12, the binding result in series [1], in series [2] and in series [3] was “no binding” in each case.

B13: 66 (dsDNA)
DNA 1: GGGGGGGAACTCCCTTAAATTTGGTTTGTTTATGTGTCCCCC
DNA 2: GGGGGACACATAAACAAACCAAATTTAAGGGAGTTCCCCCCC
Take B13: the binding result in series [1] is given as “no binding”; in series [2], “binds”; in series [3], “binds”.

B14: 62 (dsDNA)
DNA 1: GGGGGTTTAAACAATTGTCCCATTCATTATATTGCAACACCCCC
DNA 2: GGGGGTGTTGCAATATAATGAATGGGACAATTGTTTAAACCCCC
As for B14, the binding result in series [1], in series [2] and in series [3] was “binds” throughout.

B15: 57 (dsDNA)
DNA 1: GGGGGCCTAAGATTCTTAATCTGACATTGTAGTCCCTACCCCC
DNA 2: GGGGGTAGGGACTACAATGTCAGATTAAGAATCTTAGGCCCCC
For B15, the binding result is recorded as “no binding” in series [1], “binds” in series [2] and “binds” in series [3].

B16: 56 (dsDNA)
DNA 1: GGGGGACACTTATACAATAATAGTATTTATTAATAGTATCCCCC
DNA 2: GGGGGATACTATTAATAAATACTATTATTGTATAAGTGTCCCCC
With B16, the binding result in series [1], in series [2] and in series [3] was “binds” each time.

B17: 53 (dsDNA)
DNA 1: GGGGGTGCTTGTGACAAATCTGTCAATTTCTGGTGGGGGCCCCCC
DNA 2: GGGGGGCCCCCACCAGAAATTGACAGATTTGTCACAAGCACCCCC
Take B17: the binding result in series [1], in series [2] and in series [3] was “no binding” in each case.

B18: 52 (dsDNA)
DNA 1: GGGGGGGGGCAGCACAAATATTTCTGTGAATGTACCCCC
DNA 2: GGGGGTACATTCACAGAAATATTTGTGCTGCCCCCCCCC
For the molecule B18, the binding result in series [1], in series [2] and in series [3] was “no binding” each time.

B19: 51 (dsDNA)
DNA 1: GGGGGGTCCGGCTTTTGTTGATTTGCTTATCTATCCCCC
DNA 2: GGGGGATAGATAAGCAAATCAACAAAAGCCGGACCCCCC
B19: the binding result is given as “no binding” in series [1], “binds” in series [2] and “no binding” in series [3].

B20: 50 (dsDNA)
DNA 1: GGGGGTTTGTAAGTTTGTACCATTTGGCCTCAGCCCCCCC
DNA 2: GGGGGGGCTGAGGCCAAATGGTACAAACTTACAAACCCCC
Consider B20, for which the binding result in series [1], in series [2] and in series [3] was “no binding” throughout.

B21: 65 (dsDNA)
DNA 1: GGGGGGTACTTGGTGATAATTTCATTGTCCACATGCCCCCC
DNA 2: GGGGGGCATGTGGACAATGAAATTATCACCAAGTACCCCCC
As to B21, the binding result in series [1], in series [2] and in series [3] was “binds” each time.

B22: 54 (dsDNA)
DNA 1: GGGGGAGGTGTTAAGTGTGGAGTCGTGAGAACAACAATCCAGATAGCCCCC
DNA 2: GGGGGCTATCTGGATTGTTGTTCTCACGACTCCACACTTAACACCTCCCCC
For the molecule B22, the binding result in series [1] is reported as “no binding”; in series [2], “no binding”; in series [3], “binds”.
